Where “and” joins values, the source holds several entries; their conditions need not be identical. Identical values can stand only once.
How the values were obtained:
[1] = test system: T cells co-cultured with monocyte derived dendritic cells (mDC); test: CD40L levels in T cells in mDC co-culture (FACS); format: cell-based; details: mDC co-culture 2 days
Text: In order to engage dendritic cells in an immune response, dendritic cells must be converted to a functional state by an antigen-specific CD4+ helper T cell. Activation of the dendritic cells may be followed by the activation of CD8+ T cells by the dendritic cells, a process referred to as dendritic cell licensing. Engagement of the CD40L expressed on the CD4+ cells with the CD40 on the dendritic cells can result in (i) dendritic cell stimulation-measured by expression of co-stimulatory and MHC molecules (ii) proinflammatory cytokine release (e.g. IL12, TNFα and INFγ) (iii) epitope spreading. To measure the effect of CD40L expression that is tuned by the biocircuits of the present disclosure, CD4+ T cells or Jurkat cells expressing any of the CD40L constructs described herein were co-cultured with dendritic cells.
Dendritic cell function in response to co-culture with T cells expressing CD40L was evaluated in the presence of ligand or corresponding vehicle control. Monocyte derived dendritic cells (mDC) (CD14+) were isolated from fresh blood and cultured for 5 days with IL-4 (7.5 ng/mL) and GM-CSF (20 ng/mL). The mDCs were frozen down after the 5 day culture. T cells were transduced with OT-001662 and expanded for 9 days before being frozen down. mDCs and T cells were thawed and co-cultured 1:10 DC: T cell ratio (i.e. 5×10^4 DCs: 5×10^5 T cells). mDC and T cells were co-cultured for 2 days before cells were collected for flow cytometry and supernatants were collected for cytokine analysis. For evaluation of regulated constructs, ligand (various doses of TMP) was added at the time initiating the co-culture and was kept in the co-culture for 2 days. Cytokines were analyzed by MSD after a single freeze thaw cycle. All cells were cultured in complete RPMI with 10% FBS during the course of the experiment. SR indicates stabilization ratio.

[2] = test system: T cells (CD4 and CD8 positive); test: CD40L MFI in vitro in CD4 and CD8 positive T cells, 10 μM TMP; format: cell-based; details: constitutive, ligand not given
Description: T cells were transduced with OT-001662 and then treated with 10 μM TMP on day 4. CD40L expression was analyzed by FACS both in the CD4 and CD8 positive T cell populations.

T cells = test: % CD40L positive cells in vivo, transduced T cells in NSG mice dosed with TMP; design: species or system NSG female mice; details: constitutive construct
Description: Based on the in vitro data, regulatability of CD40L constructs in vivo was tested. 10-week old NSG female mice were injected with T cells transduced with one of the following constructs empty vector, OT-001661, and OT-001662 (day 0). On day 1, mice were pre-bled prior to dose with ligand. On day 2, mice were dosed every 4 hours with TMP at 500 mg/kg body weight of the mouse or vehicle control. Two hours after every dose, blood was collected from the mice to measure CD40L levels. On day 3, i.e. 24 hours after the first dose, mice were terminally bled for analysis. The values in bold represent the average values for each bleed.

CD4+ T cells = test: Ligand dose response, % CD40L positive cells, CD4+ T cells; format: cell-based
Description: Ligand dose response curve experiments were performed with increasing doses of ligand using OT-001662 and OT-001666 constructs in both CD4+ as well as CD8+ T cells.
The experiments were conducted using three different volumes of virus for transduction i.e. 0.5, 2 and 10 μL.

B1: OT-001661: constitutively expressed full length CD40L construct (protein)
chain: MHMIETYNQTSPRSAATGLPISMKIFMYLLTVFLITQMIGSALFAVYLHRRLDKIEDERNLHEDFVFMKTIQRCNTGERSLSLLNCEEIKSQFEGFVKDIMLNKEETKKENSFEMQKGDQNPQIAAHVISEASSKTTSVLQWAEKGYYTMSNNLVTLENGKQLTVKRQGLYYIYAQVTFCSNREASSQAPFIASLCLKSPGRFERILLRAANTHSSAKPCGQQSIHLGGVFELQPGASVFVNVTDPSQVSHGTGFTSFGLLKL
% CD40L+ ([1]; CD4+, DMSO): 68.1% | CD40L MFI ([1]; CD4+, DMSO): 579 | % CD40L+ ([1]; CD4+, TMP): 68.3% | CD40L MFI ([1]; CD4+, TMP): 580 | % CD40L+ ([1]; CD8+, DMSO): 62.2% | CD40L MFI ([1]; CD8+, DMSO): 495 | % CD40L+ ([1]; CD8+, TMP): 62.3% | CD40L MFI ([1]; CD8+, TMP): 499 | CD40L MFI in vitro ([2]; CD4+): 24489 | CD40L MFI in vitro ([2]; CD8+): 14352 | % CD40L positive cells in vivo (T cells; 0 hours, average): 90.1% | % CD40L positive cells in vivo (T cells; 0 hours, individual values): 80.9% and 87.1% and 84.4% and 107.8% | % CD40L positive cells in vivo (T cells; 2 hours, average): 62.3% | % CD40L positive cells in vivo (T cells; 2 hours, individual values): 85.6% and 67.4% and 33.3% and 62.7% | % CD40L positive cells in vivo (T cells; 24 hours, average): 55.8% | % CD40L positive cells in vivo (T cells; 24 hours, individual values): 53.5% and 66.7% and 61.0% and 41.9%

B2: OT-001666 (Met; ER (305-549 of WT, L384M, N413D, M421G, G521R, Y537S); Histidine; CD40L; stop) (ligand)
chain: MSLALSLTADQMVSALLDAEPPILYSEYDPTRPFSEASMMGLLTNLADRELVHMINWAKRVPGFVDLTLHDQVHLLECAWMEILMIGLVWRSMEHPGKLLFAPNLLLDRDQGKCVEGGVEIFDMLLATSSRFRMMNLQGEEFVCLKSIILLNSGVYTFLSSTLKSLEEKDHIHRVLDKITDTLIHLMAKAGLTLQQQHQRLAQLLLILSHIRHMSNKRMEHLYSMKCKNVVPLSDLLLEMLDAHRLHMIETYNQTSPRSAATGLPISMKIFMYLLTVFLITQMIGSALFAVYLHRRLDKIEDERNLHEDFVFMKTIQRCNTGERSLSLLNCEEIKSQFEGFVKDIMLNKEETKKENSFEMQKGDQNPQIAAHVISEASSKTTSVLQWAEKGYYTMSNNLVTLENGKQLTVKRQGLYYIYAQVTFCSNREASSQAPFIASLCLKSPGRFERILLRAANTHSSAKPCGQQSIHLGGVFELQPGASVFVNVTDPSQVSHGTGFTSFGLLKL
% CD40L positive cells (CD4+ T cells; 2 μL virus, BZD 0.05 nM): 8.57% | % CD40L positive cells (CD4+ T cells; 2 μL virus, BZD 0.5 nM): 9.25% | % CD40L positive cells (CD4+ T cells; 2 μL virus, BZD 5 nM): 11.1% | % CD40L positive cells (CD4+ T cells; 2 μL virus, BZD 50 nM): 36% | % CD40L positive cells (CD4+ T cells; 2 μL virus, BZD 500 nM): 71.8% | % CD40L positive cells (CD4+ T cells; 10 μL virus, BZD 0.05 nM): 4.16% | % CD40L positive cells (CD4+ T cells; 10 μL virus, BZD 0.5 nM): 4.86% | % CD40L positive cells (CD4+ T cells; 10 μL virus, BZD 5 nM): 6.42% | % CD40L positive cells (CD4+ T cells; 10 μL virus, BZD 50 nM): 34% | % CD40L positive cells (CD4+ T cells; 10 μL virus, BZD 500 nM): 76.5%
